Reference: patent publication US20140213513A1 (Sanofi, priority 2012, published 2014)
*1 amine or outer side, *2 acyl side, *3 side chain or, on linkers, in order; H or OH if unused. Where no end group is shown, it is not given here. Side-chain parts run from the residue outwards. [ ]: non-standard residue; d: D form. The star is where a group is joined. γGlu = O=C(O)[C@H](CCC(=O)[*:2])N[*:1]; Stearoyl = CCCCCCCCCCCCCCCCCC(=O)*; Palmitoyl = CCCCCCCCCCCCCCCC(=O)*; Aib = CC(C)(N)C(=O)O

B1: exendin-4 peptide analogue SEQ ID NO: 8 (peptide)
peptide: Y[Aib]QGTFTSDLSIQK([γGlu-Palmitoyl])EKLAA[Aib]EFIEWLKNTGPSSGAPPPS-NH2
modifications: N-terminus assumed
SMILES: CCCCCCCCCCCCCCCC(=O)N[C@@H](CCC(=O)NCCCC[C@H](NC(=O)[C@H](CCC(N)=O)NC(=O)[C@@H](NC(=O)[C@H](CO)NC(=O)[C@H](CC(C)C)NC(=O)[C@H](CC(=O)O)NC(=O)[C@H](CO)NC(=O)[C@@H](NC(=O)[C@H](Cc1ccccc1)NC(=O)[C@@H](NC(=O)CNC(=O)[C@H](CCC(N)=O)NC(=O)C(C)(C)NC(=O)[C@@H](N)Cc1ccc(O)cc1)[C@@H](C)O)[C@@H](C)O)[C@@H](C)CC)C(=O)N[C@@H](CCC(=O)O)C(=O)N[C@@H](CCCCN)C(=O)N[C@@H](CC(C)C)C(=O)N[C@@H](C)C(=O)N[C@@H](C)C(=O)NC(C)(C)C(=O)N[C@@H](CCC(=O)O)C(=O)N[C@@H](Cc1ccccc1)C(=O)N[C@H](C(=O)N[C@@H](CCC(=O)O)C(=O)N[C@@H](Cc1c[nH]c2ccccc12)C(=O)N[C@@H](CC(C)C)C(=O)N[C@@H](CCCCN)C(=O)N[C@@H](CC(N)=O)C(=O)N[C@H](C(=O)NCC(=O)N1CCC[C@H]1C(=O)N[C@@H](CO)C(=O)N[C@@H](CO)C(=O)NCC(=O)N[C@@H](C)C(=O)N1CCC[C@H]1C(=O)N1CCC[C@H]1C(=O)N1CCC[C@H]1C(=O)N[C@@H](CO)C(N)=O)[C@@H](C)O)[C@@H](C)CC)C(=O)O
B2: exendin-4 peptide analogue SEQ ID NO: 65 (peptide)
peptide: YAEGTFTSDLSKQKEEEAVRLFIEWLKAGGPSSGAPPPS
modifications: Aib at 2; Lys14 side-chain NH2 acylated with (S)-4-Carboxy-4-octadecanoylamino-butyryl- (yE-x70); C-terminal amide
B3: exendin-4 peptide analogue SEQ ID NO: 33 (peptide)
peptide: Y[Aib]QGTFTSDLSIQK([γGlu-Palmitoyl])EKRAALEFIEWLKNTGPSSGAPPPS-NH2
modifications: N-terminus assumed
SMILES: CCCCCCCCCCCCCCCC(=O)N[C@@H](CCC(=O)NCCCC[C@H](NC(=O)[C@H](CCC(N)=O)NC(=O)[C@@H](NC(=O)[C@H](CO)NC(=O)[C@H](CC(C)C)NC(=O)[C@H](CC(=O)O)NC(=O)[C@H](CO)NC(=O)[C@@H](NC(=O)[C@H](Cc1ccccc1)NC(=O)[C@@H](NC(=O)CNC(=O)[C@H](CCC(N)=O)NC(=O)C(C)(C)NC(=O)[C@@H](N)Cc1ccc(O)cc1)[C@@H](C)O)[C@@H](C)O)[C@@H](C)CC)C(=O)N[C@@H](CCC(=O)O)C(=O)N[C@@H](CCCCN)C(=O)N[C@@H](CCCNC(=N)N)C(=O)N[C@@H](C)C(=O)N[C@@H](C)C(=O)N[C@@H](CC(C)C)C(=O)N[C@@H](CCC(=O)O)C(=O)N[C@@H](Cc1ccccc1)C(=O)N[C@H](C(=O)N[C@@H](CCC(=O)O)C(=O)N[C@@H](Cc1c[nH]c2ccccc12)C(=O)N[C@@H](CC(C)C)C(=O)N[C@@H](CCCCN)C(=O)N[C@@H](CC(N)=O)C(=O)N[C@H](C(=O)NCC(=O)N1CCC[C@H]1C(=O)N[C@@H](CO)C(=O)N[C@@H](CO)C(=O)NCC(=O)N[C@@H](C)C(=O)N1CCC[C@H]1C(=O)N1CCC[C@H]1C(=O)N1CCC[C@H]1C(=O)N[C@@H](CO)C(N)=O)[C@@H](C)O)[C@@H](C)CC)C(=O)O
B4: exendin-4 peptide analogue SEQ ID NO: 39 (peptide)
peptide: Y[Aib]QGTFTSDLSKQK([γGlu-Palmitoyl])ESKAAQDFIEWLKAGGPSSGAPPPS-NH2
modifications: N-terminus assumed
SMILES: CCCCCCCCCCCCCCCC(=O)N[C@@H](CCC(=O)NCCCC[C@H](NC(=O)[C@H](CCC(N)=O)NC(=O)[C@H](CCCCN)NC(=O)[C@H](CO)NC(=O)[C@H](CC(C)C)NC(=O)[C@H](CC(=O)O)NC(=O)[C@H](CO)NC(=O)[C@@H](NC(=O)[C@H](Cc1ccccc1)NC(=O)[C@@H](NC(=O)CNC(=O)[C@H](CCC(N)=O)NC(=O)C(C)(C)NC(=O)[C@@H](N)Cc1ccc(O)cc1)[C@@H](C)O)[C@@H](C)O)C(=O)N[C@@H](CCC(=O)O)C(=O)N[C@@H](CO)C(=O)N[C@@H](CCCCN)C(=O)N[C@@H](C)C(=O)N[C@@H](C)C(=O)N[C@@H](CCC(N)=O)C(=O)N[C@@H](CC(=O)O)C(=O)N[C@@H](Cc1ccccc1)C(=O)N[C@H](C(=O)N[C@@H](CCC(=O)O)C(=O)N[C@@H](Cc1c[nH]c2ccccc12)C(=O)N[C@@H](CC(C)C)C(=O)N[C@@H](CCCCN)C(=O)N[C@@H](C)C(=O)NCC(=O)NCC(=O)N1CCC[C@H]1C(=O)N[C@@H](CO)C(=O)N[C@@H](CO)C(=O)NCC(=O)N[C@@H](C)C(=O)N1CCC[C@H]1C(=O)N1CCC[C@H]1C(=O)N1CCC[C@H]1C(=O)N[C@@H](CO)C(N)=O)[C@@H](C)CC)C(=O)O
B5: exendin-4 peptide analogue SEQ ID NO: 40 (peptide)
peptide: Y[Aib]QGTFTSDLSKQK([γGlu-Palmitoyl])ESKAAQEFIEWLKAGGPSSGAPPPS-NH2
modifications: N-terminus assumed
SMILES: CCCCCCCCCCCCCCCC(=O)N[C@@H](CCC(=O)NCCCC[C@H](NC(=O)[C@H](CCC(N)=O)NC(=O)[C@H](CCCCN)NC(=O)[C@H](CO)NC(=O)[C@H](CC(C)C)NC(=O)[C@H](CC(=O)O)NC(=O)[C@H](CO)NC(=O)[C@@H](NC(=O)[C@H](Cc1ccccc1)NC(=O)[C@@H](NC(=O)CNC(=O)[C@H](CCC(N)=O)NC(=O)C(C)(C)NC(=O)[C@@H](N)Cc1ccc(O)cc1)[C@@H](C)O)[C@@H](C)O)C(=O)N[C@@H](CCC(=O)O)C(=O)N[C@@H](CO)C(=O)N[C@@H](CCCCN)C(=O)N[C@@H](C)C(=O)N[C@@H](C)C(=O)N[C@@H](CCC(N)=O)C(=O)N[C@@H](CCC(=O)O)C(=O)N[C@@H](Cc1ccccc1)C(=O)N[C@H](C(=O)N[C@@H](CCC(=O)O)C(=O)N[C@@H](Cc1c[nH]c2ccccc12)C(=O)N[C@@H](CC(C)C)C(=O)N[C@@H](CCCCN)C(=O)N[C@@H](C)C(=O)NCC(=O)NCC(=O)N1CCC[C@H]1C(=O)N[C@@H](CO)C(=O)N[C@@H](CO)C(=O)NCC(=O)N[C@@H](C)C(=O)N1CCC[C@H]1C(=O)N1CCC[C@H]1C(=O)N1CCC[C@H]1C(=O)N[C@@H](CO)C(N)=O)[C@@H](C)CC)C(=O)O
B6: exendin-4 peptide analogue SEQ ID NO: 41 (peptide)
peptide: Y[Aib]QGTFTSDLSKQK([γGlu-Stearoyl])DSKAAQDFIEWLKAGGPSSGAPPPS-NH2
modifications: N-terminus assumed
SMILES: CCCCCCCCCCCCCCCCCC(=O)N[C@@H](CCC(=O)NCCCC[C@H](NC(=O)[C@H](CCC(N)=O)NC(=O)[C@H](CCCCN)NC(=O)[C@H](CO)NC(=O)[C@H](CC(C)C)NC(=O)[C@H](CC(=O)O)NC(=O)[C@H](CO)NC(=O)[C@@H](NC(=O)[C@H](Cc1ccccc1)NC(=O)[C@@H](NC(=O)CNC(=O)[C@H](CCC(N)=O)NC(=O)C(C)(C)NC(=O)[C@@H](N)Cc1ccc(O)cc1)[C@@H](C)O)[C@@H](C)O)C(=O)N[C@@H](CC(=O)O)C(=O)N[C@@H](CO)C(=O)N[C@@H](CCCCN)C(=O)N[C@@H](C)C(=O)N[C@@H](C)C(=O)N[C@@H](CCC(N)=O)C(=O)N[C@@H](CC(=O)O)C(=O)N[C@@H](Cc1ccccc1)C(=O)N[C@H](C(=O)N[C@@H](CCC(=O)O)C(=O)N[C@@H](Cc1c[nH]c2ccccc12)C(=O)N[C@@H](CC(C)C)C(=O)N[C@@H](CCCCN)C(=O)N[C@@H](C)C(=O)NCC(=O)NCC(=O)N1CCC[C@H]1C(=O)N[C@@H](CO)C(=O)N[C@@H](CO)C(=O)NCC(=O)N[C@@H](C)C(=O)N1CCC[C@H]1C(=O)N1CCC[C@H]1C(=O)N1CCC[C@H]1C(=O)N[C@@H](CO)C(N)=O)[C@@H](C)CC)C(=O)O
B7: exendin-4 peptide analogue SEQ ID NO: 38 (peptide)
peptide: Y[Aib]EGTFTSDLSIQK([γGlu-Palmitoyl])EEQAAHEFIEWLKR[Aib]GPSSGAPPPS-NH2
modifications: N-terminus assumed
SMILES: CCCCCCCCCCCCCCCC(=O)N[C@@H](CCC(=O)NCCCC[C@H](NC(=O)[C@H](CCC(N)=O)NC(=O)[C@@H](NC(=O)[C@H](CO)NC(=O)[C@H](CC(C)C)NC(=O)[C@H](CC(=O)O)NC(=O)[C@H](CO)NC(=O)[C@@H](NC(=O)[C@H](Cc1ccccc1)NC(=O)[C@@H](NC(=O)CNC(=O)[C@H](CCC(=O)O)NC(=O)C(C)(C)NC(=O)[C@@H](N)Cc1ccc(O)cc1)[C@@H](C)O)[C@@H](C)O)[C@@H](C)CC)C(=O)N[C@@H](CCC(=O)O)C(=O)N[C@@H](CCC(=O)O)C(=O)N[C@@H](CCC(N)=O)C(=O)N[C@@H](C)C(=O)N[C@@H](C)C(=O)N[C@@H](Cc1c[nH]cn1)C(=O)N[C@@H](CCC(=O)O)C(=O)N[C@@H](Cc1ccccc1)C(=O)N[C@H](C(=O)N[C@@H](CCC(=O)O)C(=O)N[C@@H](Cc1c[nH]c2ccccc12)C(=O)N[C@@H](CC(C)C)C(=O)N[C@@H](CCCCN)C(=O)N[C@@H](CCCNC(=N)N)C(=O)NC(C)(C)C(=O)NCC(=O)N1CCC[C@H]1C(=O)N[C@@H](CO)C(=O)N[C@@H](CO)C(=O)NCC(=O)N[C@@H](C)C(=O)N1CCC[C@H]1C(=O)N1CCC[C@H]1C(=O)N1CCC[C@H]1C(=O)N[C@@H](CO)C(N)=O)[C@@H](C)CC)C(=O)O

Assays:
Test in all cases: cell-based or functional assay
human GIP receptor = target: T1, human GIP receptor (human, UniProt P48546 22-466)
T1 sequence (looked up): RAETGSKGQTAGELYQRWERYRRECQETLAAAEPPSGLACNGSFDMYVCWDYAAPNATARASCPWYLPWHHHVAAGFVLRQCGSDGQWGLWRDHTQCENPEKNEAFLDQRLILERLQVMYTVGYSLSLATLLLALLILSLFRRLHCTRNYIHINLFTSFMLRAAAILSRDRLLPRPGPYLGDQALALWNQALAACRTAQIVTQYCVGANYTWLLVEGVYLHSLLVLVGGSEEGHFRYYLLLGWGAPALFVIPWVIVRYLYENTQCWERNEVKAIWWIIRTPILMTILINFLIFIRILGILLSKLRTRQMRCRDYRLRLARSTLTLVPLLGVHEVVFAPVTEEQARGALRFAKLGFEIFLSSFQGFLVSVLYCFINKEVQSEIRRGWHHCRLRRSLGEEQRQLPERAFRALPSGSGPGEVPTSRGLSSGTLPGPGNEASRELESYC

human GLP-1 receptor = human GLP-1 receptor (human, UniProt P43220 24-463)
human glucagon receptor = human glucagon receptor (human, UniProt P47871 26-477)
Sequence of human glucagon receptor (P47871 26-477): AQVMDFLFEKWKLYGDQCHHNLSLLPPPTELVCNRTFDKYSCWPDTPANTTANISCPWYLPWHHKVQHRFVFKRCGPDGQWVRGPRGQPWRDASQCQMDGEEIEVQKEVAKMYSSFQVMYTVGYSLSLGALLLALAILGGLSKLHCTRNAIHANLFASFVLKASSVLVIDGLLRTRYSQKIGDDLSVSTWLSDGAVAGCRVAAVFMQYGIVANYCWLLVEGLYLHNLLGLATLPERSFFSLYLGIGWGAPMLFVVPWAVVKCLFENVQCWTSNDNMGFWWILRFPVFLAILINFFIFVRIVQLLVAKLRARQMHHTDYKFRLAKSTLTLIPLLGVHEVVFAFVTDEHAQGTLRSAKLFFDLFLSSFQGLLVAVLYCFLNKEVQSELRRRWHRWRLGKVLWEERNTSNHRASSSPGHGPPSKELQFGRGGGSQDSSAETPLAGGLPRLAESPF

Row | Molecule | EC50 hGIP R (human GIP receptor) [nM] | EC50 hGLP-1 R (human GLP-1 receptor) [nM] | EC50 hGLUC R (human glucagon receptor) [nM]
1 | Tyr(1)Ile(12)-GLP1 (peptide) | 3.66 | 0.005 | 
2 | B1 | 0.026 | 0.0087 | 0.803
3 | B2 | 0.012 |  | 26.8
4 | B3 | 0.0882 |  | 0.109
5 | B4 | 0.0385 | 0.0045 | 0.0192
6 | B5 | 0.0536 | 0.0055 | 0.0226
7 | B6 | 0.186 | 0.0241 | 0.0265
8 | B7 | 0.0074 | 0.009 | 22.5
